This data set concerns Escherichia coli TOP10. As to the kind of experiment: shrunken log2 fold change of peptide-encoding DNA abundance (4.5 h post-induction vs induction); higher = less antimicrobial activity (less host growth inhibition). Particulars: time post-induction: 4.5 h; library: site-saturation at positions 5, 18, 19, 20.

The results in this text go back to the supplement of paper PMC9112550, “Optimization of the antimicrobial peptide Bac7 by deep mutational scanning” (BMC Biology, 2022).
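Further: peptides expressed intracellularly from a pBAD plasmid library in pooled LB shake-flask culture, induced with 0.3% L-arabinose, DNA abundance read by NGS, three biological replicates, DESeq2 with apeglm shrinkage.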

As for RRIRVRPPRLPRPRPRPLPNPRP, the “shrunken log2 fold change” value was -0.0957.

For the sequence RRIRQRPPRLPRPRPRPNGSPRP, the “shrunken log2 fold change” value is -0.00154.

In the case of RRIRCRPPRLPRPRPRPTTPPRP, the “shrunken log2 fold change” value is 0.227.

As for RRIRKRPPRLPRPRPRPQTTPRP, the “shrunken log2 fold change” value was 0.289.

In the case of RRIRFRPPRLPRPRPRPAYQPRP, the “shrunken log2 fold change” value is -0.135.

For the sequence RRIRVRPPRLPRPRPRPHLCPRP, the “shrunken log2 fold change” value is -0.137.

On to RRIRARPPRLPRPRPRPGQNPRP, for which the “shrunken log2 fold change” value came out at 0.596.

As to RRIRVRPPRLPRPRPRPTFRPRP, the “shrunken log2 fold change” value is 0.218.

In the case of RRIRLRPPRLPRPRPRPEACPRP, the “shrunken log2 fold change” value was -0.0158.

Turning to RRIRDRPPRLPRPRPRPNQNPRP, the “shrunken log2 fold change” value stood at 0.0279.

For the sequence RRIRQRPPRLPRPRPRPTHMPRP, the “shrunken log2 fold change” value came to 0.0516.

With RRIRNRPPRLPRPRPRPVYGPRP, the “shrunken log2 fold change” value is -0.0867.

On to RRIRCRPPRLPRPRPRPPLKPRP, for which the “shrunken log2 fold change” value was 0.353.

As for RRIRNRPPRLPRPRPRPEIDPRP, the “shrunken log2 fold change” value came to 0.166.

Take RRIRQRPPRLPRPRPRPPNLPRP: the “shrunken log2 fold change” value was -0.00283.

For RRIRHRPPRLPRPRPRPPEQPRP, the “shrunken log2 fold change” value was -0.000687.

On to RRIRRRPPRLPRPRPRPNGDPRP, for which the “shrunken log2 fold change” value is 0.241.

Take RRIRYRPPRLPRPRPRPWNFPRP: the “shrunken log2 fold change” value is -0.00304.

For the sequence RRIRGRPPRLPRPRPRPKCHPRP, the “shrunken log2 fold change” value came out at 0.78.

In the case of RRIRTRPPRLPRPRPRPGKFPRP, the “shrunken log2 fold change” value was -0.0892.

Take RRIRERPPRLPRPRPRPRYHPRP: the “shrunken log2 fold change” value is -0.0105.

Regarding RRIRYRPPRLPRPRPRPGHSPRP, the “shrunken log2 fold change” value was -0.13.

With RRIRHRPPRLPRPRPRPTPNPRP, the “shrunken log2 fold change” value is -0.00791.

RRIRPRPPRLPRPRPRPYPEPRP: the “shrunken log2 fold change” value is -0.421.

Turning to RRIRERPPRLPRPRPRPLKFPRP, the “shrunken log2 fold change” value was -0.377.

As for RRIRCRPPRLPRPRPRPERKPRP, the “shrunken log2 fold change” value worked out at 0.086.

RRIRCRPPRLPRPRPRPNDPPRP: the “shrunken log2 fold change” value was determined as 0.0328.

Consider RRIRARPPRLPRPRPRPESSPRP, for which the “shrunken log2 fold change” value came to 2.39.

For RRIRSRPPRLPRPRPRPSSNPRP, the “shrunken log2 fold change” value is -0.872.

For RRIRWRPPRLPRPRPRPMHGPRP, the “shrunken log2 fold change” value is -0.138.

With RRIRHRPPRLPRPRPRPPIYPRP, the “shrunken log2 fold change” value is -0.204.

Consider RRIRWRPPRLPRPRPRPRPMPRP, for which the “shrunken log2 fold change” value is 0.427.

Regarding RRIRPRPPRLPRPRPRPGLAPRP, the “shrunken log2 fold change” value turned out to be 0.841.

As to RRIRTRPPRLPRPRPRPVCWPRP, the “shrunken log2 fold change” value was 0.304.

Take RRIRIRPPRLPRPRPRPCTCPRP: the “shrunken log2 fold change” value is -0.652.

Take RRIRSRPPRLPRPRPRPSCYPRP: the “shrunken log2 fold change” value was -0.511.

With RRIRERPPRLPRPRPRPAHHPRP, the “shrunken log2 fold change” value is -0.338.

RRIRLRPPRLPRPRPRPIWSPRP: the “shrunken log2 fold change” value is -0.256.

For RRIRNRPPRLPRPRPRPQLMPRP, the “shrunken log2 fold change” value is -0.0332.

As to RRIRLRPPRLPRPRPRPWGEPRP, the “shrunken log2 fold change” value is -0.0317.

On to RRIRIRPPRLPRPRPRPMHDPRP, for which the “shrunken log2 fold change” value is -0.152.

As for RRIRCRPPRLPRPRPRPLQHPRP, the “shrunken log2 fold change” value is -0.0615.

As to RRIRRRPPRLPRPRPRPFATPRP, the “shrunken log2 fold change” value was determined as 0.814.

As for RRIRCRPPRLPRPRPRPVNKPRP, the “shrunken log2 fold change” value was -0.196.

As to RRIRLRPPRLPRPRPRPIACPRP, the “shrunken log2 fold change” value came to 0.0367.

As for RRIRLRPPRLPRPRPRPTSWPRP, the “shrunken log2 fold change” value was 0.199.

Take RRIRPRPPRLPRPRPRPNPCPRP: the “shrunken log2 fold change” value is -0.165.

In the case of RRIRGRPPRLPRPRPRPMVFPRP, the “shrunken log2 fold change” value came out at 0.78.

Regarding RRIRIRPPRLPRPRPRPEDNPRP, the “shrunken log2 fold change” value was -0.138.

As to RRIRARPPRLPRPRPRPRPNPRP, the “shrunken log2 fold change” value is 0.493.

For RRIRNRPPRLPRPRPRPFCAPRP, the “shrunken log2 fold change” value is -0.0161.

Take RRIRLRPPRLPRPRPRPRVVPRP: the “shrunken log2 fold change” value is -0.0437.

As to RRIRERPPRLPRPRPRPHDRPRP, the “shrunken log2 fold change” value is -0.00992.

Regarding RRIRCRPPRLPRPRPRPYMFPRP, the “shrunken log2 fold change” value is -1.01.

On to RRIRDRPPRLPRPRPRPDKGPRP, for which the “shrunken log2 fold change” value was -0.0944.

As for RRIRLRPPRLPRPRPRPEWKPRP, the “shrunken log2 fold change” value is -0.16.

RRIRKRPPRLPRPRPRPIILPRP: the “shrunken log2 fold change” value is -0.11.

Consider RRIRIRPPRLPRPRPRPILKPRP, for which the “shrunken log2 fold change” value turned out to be 0.134.

For RRIRERPPRLPRPRPRPRMFPRP, the “shrunken log2 fold change” value was 0.00669.

Take RRIRIRPPRLPRPRPRPMMAPRP: the “shrunken log2 fold change” value was 0.0709.

RRIRVRPPRLPRPRPRPTDGPRP: the “shrunken log2 fold change” value is 0.0478.

Consider RRIRHRPPRLPRPRPRPPCFPRP, for which the “shrunken log2 fold change” value is -0.0882.

As to RRIRWRPPRLPRPRPRPLWRPRP, the “shrunken log2 fold change” value is 3.71.

As for RRIRQRPPRLPRPRPRPFEWPRP, the “shrunken log2 fold change” value is 0.0112.

Consider RRIRDRPPRLPRPRPRPHKFPRP, for which the “shrunken log2 fold change” value was -0.122.

As to RRIRWRPPRLPRPRPRPRGPPRP, the “shrunken log2 fold change” value was 0.931.

As to RRIRSRPPRLPRPRPRPTPYPRP, the “shrunken log2 fold change” value was -0.26.

Turning to RRIRYRPPRLPRPRPRPLCGPRP, the “shrunken log2 fold change” value was -0.557.

RRIRIRPPRLPRPRPRPSTRPRP: the “shrunken log2 fold change” value was -0.54.

Turning to RRIRIRPPRLPRPRPRPTNDPRP, the “shrunken log2 fold change” value is -0.246.

Turning to RRIRWRPPRLPRPRPRPREIPRP, the “shrunken log2 fold change” value came out at 0.426.

Take RRIRIRPPRLPRPRPRPRQYPRP: the “shrunken log2 fold change” value is -0.258.

As for RRIRWRPPRLPRPRPRPGRMPRP, the “shrunken log2 fold change” value was 0.000663.

For the sequence RRIRMRPPRLPRPRPRPVGQPRP, the “shrunken log2 fold change” value is -0.00911.

Take RRIRQRPPRLPRPRPRPISTPRP: the “shrunken log2 fold change” value is -0.503.

Consider RRIRFRPPRLPRPRPRPFNQPRP, for which the “shrunken log2 fold change” value was -0.161.

As for RRIRSRPPRLPRPRPRPRARPRP, the “shrunken log2 fold change” value is 0.408.

In the case of RRIRNRPPRLPRPRPRPTTEPRP, the “shrunken log2 fold change” value was -0.257.

On to RRIRPRPPRLPRPRPRPPAEPRP, for which the “shrunken log2 fold change” value was determined as 0.632.

Consider RRIRIRPPRLPRPRPRPNHDPRP, for which the “shrunken log2 fold change” value is -0.832.

With RRIRARPPRLPRPRPRPEYLPRP, the “shrunken log2 fold change” value was -0.00441.

RRIRQRPPRLPRPRPRPEEWPRP: the “shrunken log2 fold change” value came to 0.0824.

Take RRIRLRPPRLPRPRPRPPTKPRP: the “shrunken log2 fold change” value stood at 0.288.

Take RRIRARPPRLPRPRPRPHGFPRP: the “shrunken log2 fold change” value is -0.00228.

Turning to RRIRDRPPRLPRPRPRPCELPRP, the “shrunken log2 fold change” value is 0.0111.

On to RRIRWRPPRLPRPRPRPQYWPRP, for which the “shrunken log2 fold change” value is -0.184.

As for RRIRTRPPRLPRPRPRPYQAPRP, the “shrunken log2 fold change” value was -0.206.

Regarding RRIRWRPPRLPRPRPRPLRMPRP, the “shrunken log2 fold change” value was 0.531.

Take RRIRMRPPRLPRPRPRPDWWPRP: the “shrunken log2 fold change” value came out at 0.218.

In the case of RRIRLRPPRLPRPRPRPDECPRP, the “shrunken log2 fold change” value came out at 0.0277.

Consider RRIRQRPPRLPRPRPRPNTQPRP, for which the “shrunken log2 fold change” value was -0.621.

With RRIRNRPPRLPRPRPRPFTSPRP, the “shrunken log2 fold change” value was -0.0528.

Regarding RRIRYRPPRLPRPRPRPTCPPRP, the “shrunken log2 fold change” value is -0.434.

Turning to RRIRERPPRLPRPRPRPYVCPRP, the “shrunken log2 fold change” value was -1.6.

Take RRIRNRPPRLPRPRPRPCYYPRP: the “shrunken log2 fold change” value is -0.387.

For the sequence RRIRRRPPRLPRPRPRPLNKPRP, the “shrunken log2 fold change” value came to 0.0514.

With RRIRERPPRLPRPRPRPRNDPRP, the “shrunken log2 fold change” value is -0.478.

As for RRIRWRPPRLPRPRPRPSPRPRP, the “shrunken log2 fold change” value was determined as 0.299.

Consider RRIRFRPPRLPRPRPRPETKPRP, for which the “shrunken log2 fold change” value is -0.0125.

Consider RRIRHRPPRLPRPRPRPPIGPRP, for which the “shrunken log2 fold change” value amounted to 0.0617.

RRIRKRPPRLPRPRPRPQARPRP: the “shrunken log2 fold change” value was -0.0213.

RRIRDRPPRLPRPRPRPFSFPRP: the “shrunken log2 fold change” value was -0.763.

As for RRIRQRPPRLPRPRPRPDNAPRP, the “shrunken log2 fold change” value is -0.246.

In the case of RRIRTRPPRLPRPRPRPSACPRP, the “shrunken log2 fold change” value is -0.277.

As for RRIRYRPPRLPRPRPRPYQKPRP, the “shrunken log2 fold change” value is -0.0257.

On to RRIRARPPRLPRPRPRPPTEPRP, for which the “shrunken log2 fold change” value was determined as 1.2.

As to RRIRWRPPRLPRPRPRPRWEPRP, the “shrunken log2 fold change” value is 0.238.

Take RRIRDRPPRLPRPRPRPRHKPRP: the “shrunken log2 fold change” value was 0.227.

For the sequence RRIRCRPPRLPRPRPRPEDWPRP, the “shrunken log2 fold change” value was determined as 0.595.

Regarding RRIRKRPPRLPRPRPRPHYPPRP, the “shrunken log2 fold change” value was -0.16.

As for RRIRMRPPRLPRPRPRPAELPRP, the “shrunken log2 fold change” value was 0.604.

Regarding RRIRPRPPRLPRPRPRPMTHPRP, the “shrunken log2 fold change” value was -0.268.

As to RRIRKRPPRLPRPRPRPERTPRP, the “shrunken log2 fold change” value is 0.772.

With RRIRKRPPRLPRPRPRPDEDPRP, the “shrunken log2 fold change” value was -0.00112.

In the case of RRIRWRPPRLPRPRPRPVQTPRP, the “shrunken log2 fold change” value came to 0.459.

Turning to RRIRWRPPRLPRPRPRPKVQPRP, the “shrunken log2 fold change” value amounted to 0.00116.

For the sequence RRIRNRPPRLPRPRPRPQWDPRP, the “shrunken log2 fold change” value was -0.0901.

As for RRIRDRPPRLPRPRPRPYYRPRP, the “shrunken log2 fold change” value was -0.163.

Consider RRIRFRPPRLPRPRPRPIKFPRP, for which the “shrunken log2 fold change” value is -0.587.

Take RRIRSRPPRLPRPRPRPLCQPRP: the “shrunken log2 fold change” value is -0.135.

As to RRIRVRPPRLPRPRPRPPTNPRP, the “shrunken log2 fold change” value was 1.14.

In the case of RRIRMRPPRLPRPRPRPNIPPRP, the “shrunken log2 fold change” value is -0.207.

On to RRIRERPPRLPRPRPRPLLQPRP, for which the “shrunken log2 fold change” value is -0.0771.

As for RRIRYRPPRLPRPRPRPLWSPRP, the “shrunken log2 fold change” value was 0.0381.

On to RRIRNRPPRLPRPRPRPTVHPRP, for which the “shrunken log2 fold change” value was -0.514.
